Assay results from the nanobody polyreactivity screen of Harvey et al. (2022).

Assay: yeast display, Sf9 membrane polyspecificity reagent, FACS + sequencing; frameworks hold sequencing errors
In short: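 A synthetic nanobody library was expressed on Saccharomyces cerevisiae BJ5465 by galactose induction for 36–48 hours. The library was stained for 1 hour at 4 °C with 10% biotinylated, detergent-solubilized Sf9 membrane reagent and enriched with streptavidin microbeads before FACS. Low and high (top ~1%) gates were set on anti-HA fluorescence for expression and streptavidin fluorescence for reagent binding, and each polyreactivity label reflects the gate of origin.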

Row | Sequence | polyreactivity (PSR sort gate)
1 | QDQHVESGGGLVQAGCSLRLSCAASGFIFTYYAMGWYRQAPGKERELVAAISRSGGNTYYADSVKGRFTISRDNAKNTVYFQMYSLKREDTAVYFCAAETRRGGYWGYEYYYWGQGTQVTVSS | high polyreactivity
2 | QVQLVDSRRGLVQAGGSLRLSCAASGRIFGYNAMGWYREAPGKVRELVAAISSGGGTNYADSVKGRFTISRDNAKNPVYLQMHSLKPEDTAVYYCAVRRRRYHTYYRGYDYWGQGTQVTVSS | low polyreactivity
3 | QVQLVESGGGLVQAGGSLRLSCAASGSTFGYNAMGWYRQAPGKERELVADITARGGSTYYADSVKGRFTISRANAKNTVYLQMNSLKPEVTAVYYCAARRKRFYYYAGYDYWGQGTQVTVSS | high polyreactivity
4 | QVQLVDSGGGLVQAGGSLRLSCAASGSTFYYNAMGWYRQAPGKERELVARISRSGGSTYADSVKGRFTISRDNAKNTVYLQMNSMKPEDTAVYYCNAVAYGTPEFTSYAVRYDYWGQGTQVTVSS | low polyreactivity
5 | QVQLVESGGGLVQAGGSLRLSCAASGSIFWANAMGWYRQAPGKERELVAAISSSGGRTYYADSVKGRFTISRDNAKNTVYLQMNSLKPEDTAVYYCNKLRLAYYEQGDYWGQGTQVTVSS | high polyreactivity
6 | QVQLVESGGGLVQAGGSLRLSCAASGIIFYPYAMGVYRKAPGKEREMVADITSGGGTNYADSVKGRFTISRDYAKNTVYLKMNSLKPEDTAVYYCAAEVRGYHWGTYYEFYYWGQGTQVTVSS | low polyreactivity
7 | QVQLVESGGGLVQAGGSLRLSCAASGRIFPDNAMGWYRQARGKERELVAAMTYSGGSTSYADSVKGRFTISRDNAKNTVYLQMNSLKPEDTAVYYCNKGGGTSYDYVRVDKYPGDYWGQGTQVTVSS | low polyreactivity
8 | QVQLVESGGGLVQAGGSLSLSCAASGGTFLSNAMGWYRQAPGKERELVASISWGGGSTTYADSVKGRFTISRDNAKNTVYLQMNSLKPEDTAVYYCNALDGPGYYVDYDYWGQGTQVTVSS | low polyreactivity
9 | QVQLVESGGGLVQAGGSLRLSCASSGRIFLTNAMGWYRQAPGKERELVAAITSGGSTYYADSVKGRFTISRDNAKNTVFLQMNSLKPEDTAVYYCIADTDRYWPYEYDYWGQGTQVTVSS | low polyreactivity
10 | QVQLVESGGGLVQAGGSLRLSCAASGRTLSKNAMGWYRQAPGKERELVATISSVGRTNYADSVKGRFTISRDNAKNTVYLQMNSLKPVDTAVYYCAARRFRGSYYWGLGTQVTVSS | high polyreactivity
11 | QVQLVESGGGLVQAGGSLRLSCAASGSTFDYYAMGWDRQAPGKERELVAAIRWSSGRTYYADSVKGRFTISRDNAKNTVYLQMHSLKPEDTAVYYCASAGHRGQGGPRYNYWGQGTQVTVSS | high polyreactivity
12 | QVQLVESGGGLVQAGGSLRLSCAASGITFHRYAMGWYRQAPGKERELVAGINGRGGSTYYADSVKGRFTISRDNAKNTVYLQMNSLKPEDTAVYYCNAVYAGRYFGFDYWGQGTQVTVSS | high polyreactivity
13 | QVQLVESGGGLVQAGGSIRLSCAASGRIFYTYAMGWYRPAPGKERELVAAISSRTGSTYYADSVKGRFTISRDNAKNTVYLQMNSLKPEDTAVYYCNAYRLRYGYDYWGQGTQVTVSS | high polyreactivity
14 | QVQLVESGGGLVQAGGSLRLSCAASGFTFRIYAMGWYRQAPGKERELVAAISWAGGSTFYADSVKGRFTISRDNAKNTVYLQMNSLKPEDTAVYYCAADYGYFEYDYWGQGTQVTVSS | low polyreactivity
15 | QVQLVESGGGLVQAGGSLRLSCAASGFTFRSYAMGWYRQAPGKERELVAAISSGGSTYYADSVKGRFTISRDNAKNTVYLQMNSLKPEDTAVYYCAARRYYGYGHWGQGTQVNVSS | high polyreactivity
16 | QVQLVESGGGLVQAGGSLRLSCASSGRNFYSYVMGWYRQAPGKERELVAAITRSGGTTYYADSVKGRITISRDNAKNTVYLEMYSLKPEDTAVYYCAAYVGGIRYYSWGQGTQVIVSS | high polyreactivity
17 | QVQLVESGGGLVQAGGSLRFSCAASGSTFTTNVMGWYRQAPGKERELVAAISHRGGSTYYADSVKGRFTMSRDNAKNTVYLQMNSLKPEDTAVYYCAAPGWERYGYWGQGTQVTVSS | low polyreactivity
18 | QVQLVESGGGLVQAGGSLRLSCAASGSTFRSYAMGWYRQAPGKERELVAAITSSGGRTYYADSVKGRFTISRDNAKHTVYLQMNSLKPEDTAVYYCAARTYSWGDWGQGTQVTVSS | high polyreactivity
19 | QVQLVESGGGLVQAGGSLRLSCAASGSIFMRYSMGWYRQAPGKDRELVAAITRSGGSTYYADSVKGRFTISRDNAKNTVYLQMNSLKPEDTAVYFCAAYTFVTVGYDYWGQGTQVTVSS | high polyreactivity
20 | QVQLVESGGGLVQAGGSLRLSCAASGITFSYYAMGWYRQAPGKERELVAAINSGGGSTYYADSVKGRFTISRDNAKNTVYLQMNSLKPEDTAVYYCAARYRSRYDYYYDRDYWGQGTQVTVSS | low polyreactivity
21 | QVQLVESGGGLVQAGGSLRLSCAASGSIFPVYAMGWYRQAPGKQRELVAAITTAGRTYYADSVKGRFTISRDNAKNTVYLQMNSLKPEDTAVYYCNARSRKGLTVDGGYWGQGTQVTVSS | high polyreactivity
22 | QVQLLESGGGLVQAGGSLRLSCAASGSIFGGYSMGWYRQAPGKERELVAAISWSGASTYYADSVKGRFTISRDNATTTVSLQMNSLKPEDTAVYSCAARSRVDLARSGYWGQGCQVTVSS | low polyreactivity

Row | Sequence | polyreactivity (PSR sort gate)
23 | QVQLVESGVGLVQAGGSLRLSCAASGRIFYRNAMGWYRQAPGKERELVAAISYSGGRTYYADSVKGRFTISRDNAKNTVYLQMNSLKPEDTAVYYCAARYAWGYVDPGDYWGQGTQVTVSS | high polyreactivity
24 | QVQLVESGGGLVQAGGSLRLSCAASGSIFHYYAMGWYRQAPGKERELVAAINSTGGSRTYYADSVKGRFTISRDNAKNTVYLRMNCLKPEDTAVYYCAADYRVVWRAYDYWGQGTQVTVSS | low polyreactivity
25 | QVQLVESGGGLVQAGGSLRLSCAASGRIFSTYAMGWYRQAPGKERELVAAINKIGGSTYYADSVKGRITISRDNAKNTVYLQMNSLKPEDTAVYYCAADAPYYPVRRYYYWGQGTQVTVSS | low polyreactivity
26 | QVQLVESGGGLVQAGGSLRLSCAASGRIFSAYVMGWYRQAPGKERELVAAISSGGSRTSYADSVKGRFTISRDNAKNTVYLQMNSLKPEDTAVYYCAAARFYRSAYGYWGQGTQVTVSS | high polyreactivity
27 | QVQLVESGGGLVQAGGSLRLSCAASGSTLNDYAMGWYRQSPGKERELVAGINRGGSTNYADSVKGRFTISRDNAKNTVYLQMKSLKPVDTAVYYCAVRAYRWRSTLGLYYWGQGTQVTVSS | high polyreactivity
28 | QVQLVESGGGLVQAGGSLRLSCAASGSIFGYNAMGWYRQAPGKERELVAAISSSGSSTYADSVKGRFTISRDNAKNTVYLQMNSLKPEDTAVYYCNKTTLLTVEYDYWGQGTQVTVSS | low polyreactivity
29 | QVHLGESGGGLVQAGGSLRLSCAASGSIFGYYAMGWYRQAPGKERELVAAITFRDGSTYYADSVKGRFTISRDNAKNTVYLQMNSLKPEDTAVYYCAARVTYSRGYRGGSRTKYDYWGQGTQVTVSS | low polyreactivity
30 | QVQLVESGGGLVQAGGSLRLSCAASGFIFYYYAMGWYRQAPGKERELVAAITGSGGNTYYADSVKGRFTISRDNEKNSVFFHMNSLKPEDTAVYYCNTGYDRGGDYWGQGTQVTVSS | high polyreactivity
31 | QVQLVESGGGLVQAGGSLRLSCAASGSTFTINVMGWYSQAPGKEREVVAAINGGGRTNYADSVKGRFTISRDHAKNTVNLQMNSLKPEDTAVYYCAADGLSNVRQMDYWGQGTQVTVSS | low polyreactivity
32 | QVQLVESGGGLVQAGGSLRLSCAASGRTFGENAMGWYRQAPGKERELVAAITGGDSTNYADSVKGRFTISRDNAKNTVYLQMNSLKPEDTAVYYCAAYGVKVLWTLTTYDYWGQGTQVTVSS | low polyreactivity
33 | QVHLVESGGGLVQAGGSLRLTCAASGSTFVPYAMGWYRQAPGKERELVAAISTSSGGTYYADSVKGRFTISRDNEKNTVYLQMNSLKPEDTAVYYCAAELVYVPHWLIYDYWGQGTQVTVSS | high polyreactivity
34 | QVQLVESRGVLVQAGGSLRLSCAASGSIFEWYAMGWYRQAPGKERELVAVISDGSTNYADSVKGRFTISRDNAKKTVYLQMNSLKPEDPAVSYCAADPFDGYSSSEYDYWGQGTQVTVSS | low polyreactivity
35 | QVQLVESGGGLVQAGGSLRLSCAASGRTFGYNVMGWYRQAPGKERELVADITSTSSTSYADSVKGRFTISRDNAKNTVYLQMNSLKPEDTAVYYCAAYYYFFRRYSWRLSGDYWGQGTQVTVSS | low polyreactivity
36 | QVQLVESGGGLVQAGGSLRLSCAASGFISPQNTMGWYRQAPGKERELVAAITSGGSTYYADSVKGRFTISRDNAKNTVYLLMNSLKPEDTAVYYCASRPYGTWTYGYWGQGTQVTVSS | low polyreactivity
37 | QVQLLESGGGLVQAGGSLRLSCAAAGIIFGYYTMGWYRQAPGNERELVAAITTTGGSTYYADSVKGRCTISRDNAKNTVYLQMNSLKPEDTAVYYCAARKWSHRTISDYWGQGTQVTVSS | high polyreactivity
38 | QVQLVESGGGLVQAGGSLRLSCAASGSTSGSNAMGWYRQAPGKERELVAGISYSTADTNYADSVKGRFTISRDNAKNTVYLQMNSLKPEDTAVYYCATDPFGIASRHDDYWGQGTQVTVSS | low polyreactivity
39 | QVQLVESGGGLVLAGGSLRLSCAASGSIFGPYAMGWYRQAPGKERELVAAIRSGGSTNYADSVKGRFTISRDNAKNTVYLQMNSLKPEDNAVYYCAAEYWGYPYDYWGQGTQVTVSS | low polyreactivity
40 | QVQLVESGGGLVQAGVSLRLSCAASGFTFYPYAMGWYRQAPGKERELVAAISYSGGRTYADSVKGRFTISRDNAKNTVYLQMNSLKPEDTAVYYCAADWTVLVYPYYHEYDYWGQGTQVTVSS | low polyreactivity
41 | QVQLVESGGGLVQAGGSLRLSCAASGSTFVQYVMGWYRQAPGKERELVAAISSSGGSTYYADSVKGRFTISRDNAKNTVYLQMNSLKPEDTAVYYCAAYYFVAQARYDYWGQGTQVTVSS | high polyreactivity
42 | QVQLVESGGGLVQAGGSLRLSCAASGYIFYYYAMGWYRQAPGKERELVAAINRSGTSTYYADSVKGRFTISRDNAKNTVYLQMNSLKPEDTAVYYCAAVAGNKLYYWGQGTQVTVSS | high polyreactivity
43 | QVQLVESGGGLVQAGGILRLSCAASGSIFRVYAMGWYRQAPGKVRELVASISRRGGSTYYADSVKGRFTISRDNAKNTVYLQMNSLKPEDTAVYYCAATTYSGFDYCGQGTQVTVSS | high polyreactivity
